Measurements reported in patent publication US9739733B2, “Methods for monitoring tight clot formation” (T2 Biosystems, Inc., priority 2012, dated 2017).

Tests used:
[1] = tested on: whole blood clot; experiment: T2Coagulation / TEG LY30 fibrinolysis in healthy patient blood; type: cell-based, human; conditions: kaolin runs
Method: Five different healthy patient samples were used to test whether T2Coagulation was sensitive to fibrinolysis. Addition of tissue plasminogen activator (TPA) was used to simulate fibrinolysis by adding it at two levels to healthy patient blood. TPA cleaves fibrin as it forms. It was observed that fibrinolysis can be detected within 10 minutes on T2Coagulation, which is less than half the time required for detection on TEG. For all five patients there was a clear difference between healthy and fibrinolytic samples.
There are several potential features that can be used for this correlation. Three that were investigated were the difference between (i) the minimum and maximum T2B values (FIG. 13), (ii) the average of the T2B values over the final 25 minutes of the T2B curves, and (iii) the T2B values at 10 minutes. All had correlations with R^2 values between 0.72 and 0.79. The correlation plots show a higher sensitivity of T2Coagulation for fibrinolysis than TEG. This can be seen by the groupings for the different levels of fibrinolysis in FIG. 13. The healthy patient samples are circled with the solid line. […] The T2Coagulation T2B term can be detected in as little as 10 minutes, which is much faster than the TEG LY30 term can be detected, indicating the utility of the T2Coagulation signal for more rapid measurement of fibrinolysis.

[2] = tested on: whole blood clot; experiment: T2MR whole blood fibrinolysis with spiked TPA; type: cell-based, human; conditions: 100 U/mL TPA, blood from a healthy donor
Method: The T2MR surface is also sensitive to whole blood fibrinolysis. To assess this, healthy donor samples were spiked with tissue plasminogen activator (TPA).
TPA was added at 100 U/mL to blood from a healthy donor. In the absence of TPA (see FIG. 27a) two stable peaks form at the expected clotting time. […] Both the instability and the distance between the final T2 peaks indicate sensitivity to fibrinolysis induced by the presence of TPA.
The T2MR effect on fibrinolysis was expressed in AU values (arbitrary units; see FIG. 27c) obtained by calculating the difference between the maximum and minimum T2 value observed for the clot signal (or T2B) in the T2 time curve.
Fibrinolysis was monitored by T2 magnetic resonance (T2MR) in five patient blood samples with and without the addition of TPA (100 U/mL) (FIG. 27c). […] All other samples required addition of TPA to induce fibrinolysis, as confirmed by the reference method.

[3] = tested on: IIb/IIIa receptor of human platelets; experiment: TEG clot strength (MA) of whole blood spiked with abciximab; type: cell-based; conditions: patient sample 29494
Method: The clotting of a whole blood sample was perturbed using the antithrombotic agent abciximab (ReoPro®). Abciximab is the Fab fragment of a human-murine monoclonal antibody that binds to the IIb/IIIa receptor of human platelets and inhibits platelet aggregation. Abciximab serves to inhibit the retraction of a clot during the clotting process.
Samples containing abciximab were prepared according to the following procedure and referenced in the application and Figures by a number corresponding to the concentration of abciximab in units of μg/mL.
1. Blood was drawn from normal donors into six citrate tubes. Normal donors must not have taken aspirin or any anti-platelet drug in the past two weeks.
2. The six tubes of blood were pooled and mixed gently by inversion eight to ten times. Samples were used within two hours of collection.
3. A abciximab solution (10 mg/5 mL) was diluted at a ratio of 1:4 using saline as a diluent to form “solution 1.”
4. The blood was spiked with solution 1 and saline according to Table 5
5. The samples were allowed to sit for at least five minutes prior to running any sample in a T2reader or Bruker minispec.
In a second experiment, five aliquots of patient sample 29494 were prepared with different concentrations (0, 2, 4, 8, and 0 μg/mL) of abciximab prior to initiation of the clotting process. The T2 relaxations times for the samples were measured in series, with each set of measurements lasting approximately 50 min. The first sample tested and the final sample tested contained no added abciximab. The collected T2 decay curves were processed using Inverse Laplace Transforms, as described in Example 18. […] The difference in the curve shape between the first sample run and the final sample run, both of which contained no added abciximab, may be evidence of an effect of sample age on the T2 time distribution. The corresponding TEG-determined MA values for these samples was 60.7, 61.4, 30.4, and 22.0, respectively.

[4] = tested on: platelet activity in whole blood; experiment: T2 relaxation spectra / 3D plots of clotting whole blood spiked with abciximab; type: cell-based, human
Method: T2 relaxation rate data was collected from CK blood samples drawn from healthy patients. For each sample, a series of T2 decay curves were measured over a period of 50 minutes. The decay curves were each processed using an Inverse Laplace Transform (ILT CONTIN) to provide an array of curves showing T2 intensity as a function of T2 time. […] FIG. 20 illustrates the 3D data sets for patient samples 29328 and 29350 collected on a Bruker minispec. […] At a time between 5 minutes and 30 minutes, the single water population diverged into two significant water populations. These two water populations correspond to the two components of the clot, i.e., the retracted clot and the serum surrounding the retracted clot. […] For some samples these two peaks were not entirely resolved. The correlation between the water populations and the components of the clotted sample was confirmed by separating the retracted clot from the surrounding serum and separately measuring the T2 data for these two components.
In a first experiment, four aliquots of patient sample 29488 were prepared with different concentrations of abciximab (0, 2, 4, and 8 μg/mL) prior to initiation of the clotting process. The T2 relaxation times for the four samples were measuring over the course of clot formation and the corresponding 3D plots were determined using the technique described in Example 13. […] This physical change is evidenced and quantified in the corresponding 3D plots (FIG. 21), showing fast exchange of water within the uniform sample at the highest concentration of abciximab.
In a second experiment, five aliquots of patient sample 29494 were prepared with different concentrations (0, 2, 4, 8, and 0 μg/mL) of abciximab prior to initiation of the clotting process. The T2 relaxations times for the samples were measured in series, with each set of measurements lasting approximately 50 min. […] The corresponding TEG-determined MA values for these samples was 60.7, 61.4, 30.4, and 22.0, respectively.

B1: Cathflo®: recombinant alteplase manufactured by Genentech (protein, UniProt P00750 36-562, looked up)
Tissue-type plasminogen …: SYQVICRDEKTQMIYQQHQSWLRPVLRSNRVEYCWCNSGRAQCHSVPVKSCSEPRCFNGGTCQQALYFSDFVCQCPEGFAGKCCEIDTRATCYEDQGISYRGTWSTAESGAECTNWNSSALAQKPYSGRRPDAIRLGLGNHNYCRNPDRDSKPWCYVFKAGKYSSEFCSTPACSEGNSDCYFGNGSAYRGTHSLTESGASCLPWNSMILIGKVYTAQNPSAQALGLGKHNYCRNPDGDAKPWCHVLKNRRLTWEYCDVPSCSTCGLRQYSQPQFRIKGGLFADIASHPWQAAIFAKHRRSPGERFLCGGILISSCWILSAAHCFQERFPPHHLTVILGRTYRVVPGEEEQKFEVEKYIVHKEFDDDTYDNDIALLQLKSDSSRCAQESSVVRTVCLPPADLQLPDWTECELSGYGKHEALSPFYSERLKEAHVRLYPSSRCTSQHLLNRTVTDNMLCAGDTRSGGPQANLHDACQGDSGGPLVCLNDGRMTLVGIISWGLGCGQKDVPGVYTKVTNYLDWIRDNMRP
modifications: alteplase
notes: recombinant alteplase manufactured by Genentech
degree of fibrinolysis ([1]; 60 ng/mL): partially fibrinolytic
degree of fibrinolysis ([1]; 118 ng/mL): fully fibrinolytic

B2: TPA: tissue plasminogen activator (protein, UniProt P00750 36-562, looked up)
Tissue-type plasminogen …: B1 Tissue-type plasminogen …
clot stability (T2MR peaks) [2]: unstable after 20-30 minutes

B3: abciximab (antibody, chains of the INN, looked up, V domains shown)
VH: EVQLQQSGTVLARPGASVKMSCEASGYTFTNYWMHWVKQRPGQGLEWIGAIYPGNSDTSYIQKFKGKAKLTAVTSTTSVYMELSSLTNEDSAVYYCTLYDGYYVFAYWGQGTLVTVSA
VL: EIVLTQSPVTLSVTPGDSVSLSCRASRDISNNLHWFQQTSHESPRLLIKYASQSMSGIPSRFSGSGSGTDFTLSINSVETEDFGMYFCQQTNSWPYTFGGGTKLEIK
modifications: Fab
TEG-determined MA ([3]; abciximab 2 μg/mL): 61.4
TEG-determined MA ([3]; abciximab 4 μg/mL): 30.4
TEG-determined MA ([3]; abciximab 8 μg/mL): 22.0
clot associated and serum associated T2 signal ([4]; 8 μg/mL Reopro®, T2reader): reduces the signal intensity of the clot associated signal and shifts the serum associated signal to lower T2 values
distribution of T2 signals within the initial water population ([4]; at 0.1 minutes, abciximab 2, 4, 8 μg/mL, patient sample 29494): narrower distribution of T2 signals
retracted clot and serum water populations in 3D plot ([4]; highest concentration of abciximab (8 μg/mL), patient sample 29488): no longer two phases visible within the clot
